This is an account of results in patent US8092794B2, “Pharmaceutical compositions comprising SODs and prolamine based peptide fragments” (Isocell Pharma S.A., priority 2006, dated 2012).

The nature of data set [1]: NBT photoreduction on NATIVE-PAGE electrophoresis (anti-radical / antioxidant activity of SODs). The conditions noted are these: currently used bacterial host strains, rare codons. The class given is biochemical. On the procedure: The expression products of the first variants for each kind of constructions were used to validate the anti-radical activity of the various biosynthetic SODs obtained. These activities were verified by the reduction of NBT on native PAGE.
The melon pseudo cytosolic Cu—ZnSOD and the human or tomato cytosolic Cu—ZnSOD as well as their equivalents bearing the two different gliadin peptides are analysed for their antiradical activities. These activities are verified according to the NBT photoreduction on NATIVE-PAGE electrophoresis (Beauchamps and Fridovitch, 1971).
The Cucumis melo recombinant SOD as well as its equivalents bearing the gliadin peptide (Gli-SOD) were produced and purified according to a multiple step denaturation/renaturation protocol. […] The potentiality of both recombinant proteins (Cucumis melo SOD and Gli-SOD) to reduce NBT on NATIVE-PAGE electrophoresis (NBT photoreduction, Beauchamps and Fridovitch, 1971) was evaluated and compared with that of the natural Cucumis melo extract.
The migration profile and the NBT reduction obtained on Native-PAGE electrophoresis corroborate the correct and efficient refolding of both recombinant proteins, SOD or Gli-SOD (4 000-10 000 UNBT/mg protein) which is a mandatory event to display their antioxidant activity.

Data set [2] concerns foot oedema induced by carrageenan or adriamycin. As to conditions: cited from earlier work; for anti-inflammatory activity in rats: studies in rats.
A further data set relates to HT-29 cell line. The data set is described as follows: HT-29 cell proliferation (cell count, GUAVA PC Viacount). In kind it is cell-based, human. As to conditions: for toxic effect on HT-29 proliferation curves: 10 units, sampled over 72 hours; for dose that does not modify growth of the HT-29 cell line: dose range 0 to 50 NBT units. How it is done: The human colon carcinoma cell line HT-29 (ATCC HTB-38) is grown in 10% foetal bovine serum (FBS) in Dulbecco's modified Eagle's medium (D-MEM) supplemented with GlutaMAX-1, 4.5 g/L D-Glucose, sodium pyruvate and 100 unit/ml of penicillin/streptomycin. For each experiment (n=4) approximately 2×10^4 cells/well were incubated for 24 hours at 37° C. in 5% CO2 atmosphere. Prior to any experiment, existing culture medium was replaced by a fresh one.
After the incubation period, cell monolayers were detached with a PBS solution containing 0.05% trypsin and 0.5 mM EDTA, washed in calcium-free and magnesium-free phosphate-buffered saline solution (PBS) and collected by centrifugation. Cells were then counted in a hemocytometer by using the GUAVA PC Viacount Flex Kit and reported in cells/ml to estimate cellular proliferation.
In the current experiment, cultures are periodically sampled over a 72 hour period to assess the proliferation rate and the viability of HT-29 cells after exposure or not to various components, (a) 10 μM of gliadin peptide 982 (Triticum vulgare, QQPYPQPF, SEQ. ID No. 01) representing at least 100 times less than the concentration previously related to induce a significant enterocyte agglutination (De Vicenzi. M et al. 1997 Toxicology, vol 120 p 207) or enterocyte apoptosis (Giovannini et al. 2000, Toxicology, vol 145 p 63).
For recombinant protein dose-response experiments, HT-29 cells were incubated with increasing concentrations of recombinant SOD or Gli-SOD (0 to 50 NBT units) for a further 48 hours.
Cultures were periodically sampled over 72 hours to assess the proliferation rate and the viability of HT-29 cells after exposure or not to various components, (a) 10 units of recombinant SOD or (b) 10 units of recombinant SOD associated with 10 μM of peptide 982 or finally (c) 10 units of recombinant Gli-SOD (SOD physically linked to gliadin peptide 982).

For data set [3], the system named is HT-29 cells. The data set is described as follows: Basal apoptosis of HT-29 cells, annexin V test (GUAVA Nexin Kit). As to conditions: 10 units, 24 hours; for rate of basal apoptosis (annexin V positive cells): basal 20% (20.5). The class given is cell-based, human. On the procedure: (§1) Apoptosis was analyzed in HT-29 cell line using the GUAVA Nexin Kit which discriminates between apoptotic and non apoptotic cells. This method utilizes annexin V Phycoerythrin to detect phopshatidylserine (PS) (Martin et al. 1995, J Exp Med vol 182 p 1545) on the external membrane of apoptotic cells.
(§2) After 24 hours, cell monolayers are detached with a PBS solution containing trypsin 0.05% and EDTA 0.5 mM, washed in calcium-free and magnesium-free phosphate-buffered saline solution (PBS) and apoptotic cell staining is performed and analysed with a GUAVA PCA system.
(§3) For the basal apoptotic inhibition (part A), the culture medium was replaced with fresh culture medium containing or absent 10 units of both recombinant SODs (NBT units). For the Orexin induced-apoptotic inhibition (part B), the culture medium was replaced with fresh culture medium containing 1 μM of orexin and/or 50 units of each recombinant SOD (NBT units). Results are expressed as the percentage of apoptotic annexin V-PE positive cells and are the means of four points.

In data set [4] the test system is HT-29 cells. The data set is described as follows: Orexin-induced apoptosis of HT-29 cells, annexin V test. The conditions noted are these: 50 units + 1 μM orexin; for rate of orexin-induced apoptosis: orexin alone 40%. The class given is cell-based, human. How it is done: as §1, §2, §3
In a second experiment, the potent anti-apoptotic effect of the recombinant SOD or Gli-SOD was confirmed when apoptosis was induced via orexin supplementation to the HT-29 cells culture medium. In this case, the rate of HT-29 cell going into apoptosis may be enhanced from 20% evaluated for the basal level to 40% by addition of 1 μM of Orexin in the culture medium.

Data set [5] relates to HT-29 cells. The data set is described as follows: Xanthine/xanthine oxidase (X/XO)-induced apoptosis of HT-29 cells, annexin V test. The class given is cell-based, human. The conditions noted are these: 50 units, 10mU of X/XO complex. How it is done:
as §1, §2
In this third experiment, tests of the potent anti-apoptotic effect of the recombinant SOD or Gli-SOD according to the invention on the possible Fas/FasL pathway via Xanthine/xanthine oxidase induction in the HT-29 cells culture medium were carried out.
In this case, the rate of HT-29 cell going into apoptosis may be enhanced from 20% evaluated for the basal level to 30% by addition of 10mU of X/XO complex in the culture medium. Addition of 50 units of recombinant melon SOD or again 50 units of recombinant Gli-SOD to the culture medium, prevented the X/XO-induced apoptotic pathway in the HT-29 cells respectively by 71% and 86%.

Data set [6] concerns HT-29 cells. The data set is described as follows: Binding of SOD or Gli-SOD to HT-29 cells, FITC immunohistochemistry with EP-1669. In kind it is cell-based, human. The conditions noted are these: 50 units, 24 hours. On the procedure: For each experiment (n=4), approximately 15×10^3 cells/lamella layer were incubated for 24 hours at 37° C. in 5% CO2 atmosphere. Prior to any experiment, existing culture medium was replaced by a fresh one.
The cell monolayer was then incubated in a fresh medium with or without 50 units of SOD or Gli-SOD for a further 24 hours, washed in calcium-free and magnesium-free phosphate-buffered saline solution (PBS) and then analyzed by immunohistochemistry. Binding of Gli-SOD to HT-29 cells was analyzed using the EP-1669 as a first antibody (rabbit IgG anti-SOD, dilution 1/2000°) for 30 minutes followed by a second FITC-coupled antibody for further 30 minutes (goat anti-rabbit antibody, dilution 1/100). This method was chosen rather than flow cytometry because the latter technique requires that cells be harvested by trypsin treatment and collected prior to analysis, and such treatment would likely have negatively impacted the interaction between the Gli-SOD molecules and cell surfaces.

Turning to “Human CuZn-SOD: recombinant human cytosolic CuZn-SOD expressed in bacteria”, the “activity of biosynthetic SOD expressed in the applicant's bacterial system” value in data set [1] was “functional”.

Take “homologous rat CuZn-SOD: rat CuZn superoxide dismutase”: the “anti-inflammatory activity in rats” value in data set [2] is “no anti-inflammatory activity”.

As for “QQPYPQPQPF (Triticum vulgare) [peptide 982, 10 amino acids peptide of A-gliadin, Triticum vulgare]”, the “effect on HT-29 cell line proliferation at 24 hours” value with HT-29 cell line (10 μM peptide, 24 hours of culture) is on record as “a major effect on HT-29 cell line proliferation, but exclusively at 24 hours of culture”. The “effect on HT-29 proliferation after 48 hours” value in the data set on HT-29 cell line (10 μM peptide, 48 hours) is “the proliferation returns to its basal level”.

Regarding “bovine CuZn-SODs: bovine CuZn superoxide dismutase”, the “anti-inflammatory activity after oral administration” value in data set [2] (administered orally, using liposomes or ceramides, rat leg oedema induced by carrageenan) is given as “reduction of rat leg oedema induced by carrageenan”. Also, the “anti-inflammatory activity in rats” value in data set [2] is on record as “such an anti-inflammatory activity”.

B1: human Mn-SOD: human manganese superoxide dismutase (protein, UniProt P04179 25-222, looked up)
Superoxide dismutase [Mn], …: KHSLPDLPYDYGALEPHINAQIMQLHHSKHHAAYVNNLNVTEEKYQEALAKGDVTAQIALQPALKFNGGGHINHSIFWTNLSPNGGGEPKGELLEAIKRDFGSFDKFKEKLTAASVGVQGSGWGWLGFNKERGHLQIAACPNQDPLQGTTGLIPLLGIDVWEHAYYLQYKNVRPDYLKAIWNVINWENVTERYMACKK
In the case of B1, the “anti-inflammatory activity in rats” value in data set [2] is “no anti-inflammatory activity”.

B2: recombinant Gli-SOD: recombinant melon CuZn SOD fused at its N-terminal part to A-gliadin peptide QQPYPQPQPF (peptide 982) (protein)
chain: QQPYPQPQPFMVKAVAVLKGTSDVEGVVTLTQEDDGPTSVNVRITGLTPGPHGFHLHEFGDTTNGCISTGAHFNPNKLTHGAPEDEIRHAGDLGNIIANADGVAEATIVDNQIPLSGPNSVVGRAFVVHELADDLGKGGHELSLTTGNAGGRLACGVVGLTPV
modifications: Cucumis melo
Turning to B2, the “"peptide effect" on HT-29 proliferation at 24 hours” value with HT-29 cell line (10 units SOD coupled to or associated with 10 μM peptide 982) is listed as “no “peptide effect” at 24 hours of culture”. Also, in the data set with HT-29 cell line, the “toxic effect on HT-29 proliferation curves” value is “neither SOD nor Gli-SOD exert any toxic effect”. Further, in the data set on HT-29 cell line (48 hours), the “dose that does not modify growth of the HT-29 cell line” value is recorded as 5 units. Moreover, in the data set on HT-29 cells [3], the “inhibition of basal apoptosis” value came out at 18.1% and the “rate of basal apoptosis (annexin V positive cells)” value is on record as 16.8%. Also, in the data set on HT-29 cells [4], the “inhibition of orexin-induced apoptosis” value stood at 54.7% and the “rate of orexin-induced apoptosis” value was 28.7%. In addition, in the data set with HT-29 cells [5], the “prevention of X/XO-induced apoptotic pathway” value is reported as 86%. Besides, in the data set on HT-29 cells [6], the “presence of SOD in the vicinity of the cells (FITC fluorescence)” value is listed as “apparently to a greater extent”.

B3: yeast CuZn-SODs: yeast CuZn superoxide dismutase (protein, UniProt P00445 2-154, looked up)
Superoxide dismutase [Cu-Zn]: VQAVAVLKGDAGVSGVVKFEQASESEPTTVSYEIAGNSPNAERGFHIHEFGDATNGCVSAGPHFNPFKKTHGAPTDEVRHVGDMGNVKTDENGVAKGSFKDSLIKLIGPTSVVGRSVVIHAGQDDLGKGDTEESLKTGNAGPRPACGVIGLTN
B3: the “anti-inflammatory activity in rats” value in data set [2] is recorded as “pro-inflammatory activity”.

B4: biosynthetic tomato cytosolic SODs: recombinant Lycopersicon esculentum cytosolic CuZn-SOD expressed in bacteria (protein, listed as Lycopersicon esculentum)
chain: MVKAVAVLNSSEGVSGTILFTQDGDAPTTVNGNISGLKPGLHGFHVHALGDTTNGCMSTGPHYNPAGKEHGAPEDEVRHAGDLGNITVGEDGTASFTITDKQIPLTGPQSIIGRAVVVHADPDDLGKGGHELSKSTGNAGGRIACGIIGLQG
Take B4: the “activity of biosynthetic SOD expressed in the applicant's bacterial system” value in data set [1] is recorded as “a lot less active”.

B5: recombinant SOD: recombinant Cucumis melo CuZn superoxide dismutase (pseudo-cytosolic form) expressed in E. coli, His-tag cleaved, refolded (protein)
chain: MVKAVAVLKGTSDVEGVVTLTQEDDGPTSVNVRITGLTPGPHGFHLHEFGDTTNGCISTGAHFNPNKLTHGAPEDEIRHAGDLGNIIANADGVAEATIVDNQIPLSGPNSVVGRAFVVHELADDLGKGGHELSLTTGNAGGRLACGVVGLTPV
modifications: Cucumis melo
As to B5, the “toxic effect on HT-29 proliferation curves” value in the data set with HT-29 cell line is given as “neither SOD nor Gli-SOD exert any toxic effect”. In addition, in the data set with HT-29 cell line (48 hours), the “dose that does not modify growth of the HT-29 cell line” value turned out to be 10 units. Also, in the data set on HT-29 cells [3], the “inhibition of basal apoptosis” value is 12.2% and the “rate of basal apoptosis (annexin V positive cells)” value was determined as 18%. Besides, in the data set with HT-29 cells [4], the “inhibition of orexin-induced apoptosis” value was 26% and the “rate of orexin-induced apoptosis” value was found to be 34.4%. The “prevention of X/XO-induced apoptotic pathway” value in the data set with HT-29 cells [5] is listed as 71%. For the same molecule, the “presence of SOD in the vicinity of the cells (FITC fluorescence)” value with HT-29 cells [6] is given as “clearly visible”.
